The target of the experiment is CD8+ T cells among expanded tumor infiltrating lymphocytes (TIL) of a lung adenocarcinoma patient (H). Kind of experiment: flow cytometry, tetramer staining of expanded TILs of one patient.

The substance “KRAS-G12V/HLA-A*11:01 tetramer (from UniProt P61769 21-119) (peptide-MHC)” showed a percent of CD8+ T cells binding the tetramer greater than 66%.

Values taken from US20210196806A1.
